Target: AChE expressed in COS cells (human and/or mouse AChE) (human and/or mouse)
Test: cell-based or functional assay

In order of rising “G4 AChE level” value:
1. KRSVNKCCLLTPPPPPLFPPPFFTETNILKDEL [SEQ ID NO: 11]  2.14
2. VNKCCLLTPPPPPLFPPPFFTETLDEL [SEQ ID NO: 8]  2.17
3. VNKCCLLTPPPPPLFPPPFFKDEL [SEQ ID NO: 6]  2.26
4. KRSVNKCCLLTPPPPPLFPPPFFKDEL [SEQ ID NO: 9]  2.37
5. CCLLTPPPPPLFPPPFFKDEL [ColQ PRAD-KDEL peptide]  2.37

Target: AChE of primary quail muscle cells (quail)
Test: cell-based or functional assay

With CCLLTPPPPPLFPPPFF [ColQ PRAD peptide (17 amino acid ColQ PRAD polypeptide)] the “tetrameric G4 AChE activity in the medium (velocity sedimentation, 10 uM peptide overnight)” value was > 2 fold.
